Measured values taken from publication PMC9482650, “Quantitative fragmentomics allow affinity mapping of interactomes” (Nature Communications, 2022).

Columns and labels:
Experiment in all cases: holdup assay
Design in all cases: key: below the threshold = too weak to quantify, mostly under pKd 3.1 to 4
APBA2_1, Q99767 = biological target: T1, APBA2_1, Q99767
T1 sequence (Q99767 563-664, limits assumed, looked up): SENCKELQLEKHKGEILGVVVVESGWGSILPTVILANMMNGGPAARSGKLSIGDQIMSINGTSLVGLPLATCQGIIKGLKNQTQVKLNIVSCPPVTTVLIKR

ARHGEF11, O15085 = biological target: T2, ARHGEF11, O15085
T2 sequence (O15085 42-136, limits assumed, looked up): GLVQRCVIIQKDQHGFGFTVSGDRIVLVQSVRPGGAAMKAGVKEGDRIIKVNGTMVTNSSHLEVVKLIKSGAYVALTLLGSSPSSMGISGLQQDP

ARHGEF12, Q9NZN5-2 = biological target: ARHGEF12, Q9NZN5-2
CASK, O14936 = biological target: CASK, O14936
DLG2_2, Q15700 = biological target: DLG2_2, Q15700
DLG2_3, Q15700 = biological target: DLG2_3, Q15700
GRID2IP_1, A4D2P6 = biological target: GRID2IP_1, A4D2P6
GRIP1_2, Q9Y3R0 = biological target: T3, GRIP1_2, Q9Y3R0
T3 sequence (Q9Y3R0 145-248, limits assumed, looked up): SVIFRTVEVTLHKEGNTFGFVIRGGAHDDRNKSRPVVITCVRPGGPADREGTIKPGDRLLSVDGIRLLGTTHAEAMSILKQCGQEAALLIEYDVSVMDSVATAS

GRIP1_3, Q9Y3R0 = biological target: T4, GRIP1_3, Q9Y3R0
T4 sequence (Q9Y3R0 247-346, limits assumed, looked up): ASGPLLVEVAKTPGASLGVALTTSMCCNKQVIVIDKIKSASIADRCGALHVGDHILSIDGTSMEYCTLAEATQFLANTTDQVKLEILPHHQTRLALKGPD

GRIP2_6, Q9C0E4 = biological target: GRIP2_6, Q9C0E4
HTRA1, Q92743 = biological target: HTRA1, Q92743
IL16_4, Q14005 = biological target: IL16_4, Q14005
Inadl_10, Q8NI35 = biological target: Inadl_10, Q8NI35
Inadl_2, Q8NI35 = biological target: Inadl_2, Q8NI35
LIN7C, Q9NUP9 = biological target: T5, LIN7C, Q9NUP9
T5 sequence (Q9NUP9 88-185, limits assumed, looked up): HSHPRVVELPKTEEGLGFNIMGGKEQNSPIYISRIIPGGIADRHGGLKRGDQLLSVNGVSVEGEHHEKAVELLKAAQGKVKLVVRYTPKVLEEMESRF

LNX1_2, Q8TBB1 = biological target: LNX1_2, Q8TBB1
MAGI1_1, Q96QZ7 = biological target: MAGI1_1, Q96QZ7
NHERF3_1, Q5T2W1 = biological target: T6, NHERF3_1, Q5T2W1
T6 sequence (Q5T2W1 4-100, limits assumed, looked up): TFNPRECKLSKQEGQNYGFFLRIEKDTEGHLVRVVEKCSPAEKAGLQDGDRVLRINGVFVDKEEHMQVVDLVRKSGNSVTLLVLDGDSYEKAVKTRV

NHERF3_3, Q5T2W1 = biological target: T7, NHERF3_3, Q5T2W1
T7 sequence (Q5T2W1 238-333, limits assumed, looked up): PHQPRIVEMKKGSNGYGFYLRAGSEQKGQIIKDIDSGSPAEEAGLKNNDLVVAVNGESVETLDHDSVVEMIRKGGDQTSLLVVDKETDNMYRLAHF

PDZRN4_1, Q6ZMN7 = biological target: PDZRN4_1, Q6ZMN7
RADIL, Q96JH8 = biological target: T8, RADIL, Q96JH8
T8 sequence (Q96JH8 971-1071, limits assumed, looked up): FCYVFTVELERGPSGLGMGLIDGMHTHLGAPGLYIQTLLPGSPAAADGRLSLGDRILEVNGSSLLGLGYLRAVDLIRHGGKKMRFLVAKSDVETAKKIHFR

RHPN1, Q8TCX5 = biological target: T9, RHPN1, Q8TCX5
T9 sequence (Q8TCX5 508-602, limits assumed, looked up): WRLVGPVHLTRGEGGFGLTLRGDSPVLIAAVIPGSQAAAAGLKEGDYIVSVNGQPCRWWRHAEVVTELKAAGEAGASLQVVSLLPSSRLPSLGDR

SNTG1, Q9NSN8 = biological target: T10, SNTG1, Q9NSN8
T10 sequence (Q9NSN8 52-150, limits assumed, looked up): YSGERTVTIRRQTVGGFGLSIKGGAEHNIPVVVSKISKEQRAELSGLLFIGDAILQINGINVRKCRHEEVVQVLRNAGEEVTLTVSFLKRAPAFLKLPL

SYNJ2BP, P57105 = biological target: T11, SYNJ2BP, P57105
T11 sequence (P57105 8-110, limits assumed, looked up): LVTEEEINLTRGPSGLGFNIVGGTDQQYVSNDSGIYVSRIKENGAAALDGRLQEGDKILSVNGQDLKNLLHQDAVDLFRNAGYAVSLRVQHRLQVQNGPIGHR

TJP1_2, Q07157 = biological target: TJP1_2, Q07157
TJP3_3, O95049 = biological target: T12, TJP3_3, O95049
T12 sequence (O95049 375-456, limits assumed, looked up): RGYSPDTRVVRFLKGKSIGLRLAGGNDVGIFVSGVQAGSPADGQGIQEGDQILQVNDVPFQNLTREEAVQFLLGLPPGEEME

[1] = modified: phospho on S at position -3 from the C-terminal residue
[2] = modified: acetyl on K at position -1 from the C-terminal residue
[3] = plain residues with an end cap or a label only (N-terminal biotin on a linker: ado-ado)

PDZRN4_1, Q6ZMN7, sequence (Q6ZMN7 213-318): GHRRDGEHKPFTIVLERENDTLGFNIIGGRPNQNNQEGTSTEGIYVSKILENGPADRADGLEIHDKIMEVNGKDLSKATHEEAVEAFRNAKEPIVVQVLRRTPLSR
Inadl_2, Q8NI35, sequence (Q8NI35 238-335): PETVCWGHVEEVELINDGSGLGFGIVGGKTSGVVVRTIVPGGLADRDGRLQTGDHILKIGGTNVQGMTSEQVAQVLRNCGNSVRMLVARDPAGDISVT
HTRA1, Q92743, sequence (Q92743 360-477): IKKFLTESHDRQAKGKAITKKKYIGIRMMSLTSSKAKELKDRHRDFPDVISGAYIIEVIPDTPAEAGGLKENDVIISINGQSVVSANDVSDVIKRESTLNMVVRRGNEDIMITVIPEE
ARHGEF12, Q9NZN5-2, sequence (Q9NZN5 other isoform, or with tags, fused parts or gaps): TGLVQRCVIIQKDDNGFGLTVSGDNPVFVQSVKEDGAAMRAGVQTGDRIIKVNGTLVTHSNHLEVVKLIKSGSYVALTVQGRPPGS
TJP1_2, Q07157, sequence (Q07157 181-274): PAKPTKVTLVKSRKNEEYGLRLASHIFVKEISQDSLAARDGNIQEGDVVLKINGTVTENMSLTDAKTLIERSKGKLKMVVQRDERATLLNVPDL
GRIP2_6, Q9C0E4, sequence (Q9C0E4 648-740): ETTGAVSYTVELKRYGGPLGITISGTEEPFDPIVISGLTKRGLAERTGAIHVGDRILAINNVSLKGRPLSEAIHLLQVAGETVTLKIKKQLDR
CASK, O14936, sequence (O14936 487-570): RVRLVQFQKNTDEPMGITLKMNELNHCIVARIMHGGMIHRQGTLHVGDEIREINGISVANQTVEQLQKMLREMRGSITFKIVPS
Inadl_10, Q8NI35, sequence (Q8NI35 1673-1763): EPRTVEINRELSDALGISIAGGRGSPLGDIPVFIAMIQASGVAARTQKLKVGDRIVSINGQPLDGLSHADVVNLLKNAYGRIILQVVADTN
GRID2IP_1, A4D2P6, sequence (A4D2P6 1-87): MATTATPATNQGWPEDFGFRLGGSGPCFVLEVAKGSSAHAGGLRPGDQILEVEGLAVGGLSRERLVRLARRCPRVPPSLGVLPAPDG
MAGI1_1, Q96QZ7, sequence (Q96QZ7 1-106): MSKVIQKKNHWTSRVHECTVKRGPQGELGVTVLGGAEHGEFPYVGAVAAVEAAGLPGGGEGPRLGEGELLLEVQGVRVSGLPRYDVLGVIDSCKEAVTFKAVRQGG
IL16_4, Q14005, sequence (Q14005 1229-1329): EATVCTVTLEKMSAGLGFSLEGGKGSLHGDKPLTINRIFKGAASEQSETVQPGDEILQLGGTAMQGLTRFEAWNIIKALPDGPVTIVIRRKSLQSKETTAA
LNX1_2, Q8TBB1, sequence (Q8TBB1 371-470): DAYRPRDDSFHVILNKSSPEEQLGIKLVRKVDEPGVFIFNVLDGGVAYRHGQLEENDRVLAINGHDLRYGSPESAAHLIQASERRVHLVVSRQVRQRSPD

B1: RPS6KA1_-3P, Q15418 (peptide)
chain: RRVRKLPSTTL
pKd (APBA2_1, Q99767; [1]): below the threshold
pKd (ARHGEF11, O15085; [1]): below the threshold
pKd (ARHGEF12, Q9NZN5-2; [1]): 3.79
pKd (CASK, O14936; [1]): below the threshold
pKd (DLG2_2, Q15700; [1]): below the threshold
pKd (DLG2_3, Q15700; [1]): below the threshold
pKd (GRID2IP_1, A4D2P6; [1]): below the threshold
pKd (GRIP1_2, Q9Y3R0; [1]): below the threshold
pKd (GRIP1_3, Q9Y3R0; [1]): below the threshold
pKd (GRIP2_6, Q9C0E4; [1]): below the threshold
pKd (HTRA1, Q92743; [1]): below the threshold
pKd (IL16_4, Q14005; [1]): below the threshold
pKd (Inadl_10, Q8NI35; [1]): below the threshold
pKd (Inadl_2, Q8NI35; [1]): below the threshold
pKd (LIN7C, Q9NUP9; [1]): below the threshold
pKd (LNX1_2, Q8TBB1; [1]): below the threshold
pKd (MAGI1_1, Q96QZ7; [1]): below the threshold
pKd (NHERF3_1, Q5T2W1; [1]): below the threshold
pKd (NHERF3_3, Q5T2W1; [1]): below the threshold
pKd (PDZRN4_1, Q6ZMN7; [1]): 3.98
pKd (RADIL, Q96JH8; [1]): below the threshold
pKd (RHPN1, Q8TCX5; [1]): 4.34
pKd (SNTG1, Q9NSN8; [1]): 3.94
pKd (SYNJ2BP, P57105; [1]): 4.48
pKd (TJP1_2, Q07157; [1]): below the threshold
pKd (TJP3_3, O95049; [1]): below the threshold

B2: PTEN_Ac, P60484 (peptide)
chain: DEDQHTQITKV
pKd (APBA2_1, Q99767; [2]): below the threshold
pKd (ARHGEF11, O15085; [2]): 5.16
pKd (ARHGEF12, Q9NZN5-2; [2]): 4.47
pKd (CASK, O14936; [2]): below the threshold
pKd (DLG2_2, Q15700; [2]): 4.37
pKd (DLG2_3, Q15700; [2]): below the threshold
pKd (GRID2IP_1, A4D2P6; [2]): below the threshold
pKd (GRIP1_2, Q9Y3R0; [2]): below the threshold
pKd (GRIP1_3, Q9Y3R0; [2]): below the threshold
pKd (GRIP2_6, Q9C0E4; [2]): below the threshold
pKd (HTRA1, Q92743; [2]): 5.03
pKd (IL16_4, Q14005; [2]): below the threshold
pKd (Inadl_10, Q8NI35; [2]): below the threshold
pKd (Inadl_2, Q8NI35; [2]): 3.6
pKd (LIN7C, Q9NUP9; [2]): below the threshold
pKd (LNX1_2, Q8TBB1; [2]): 4.18
pKd (MAGI1_1, Q96QZ7; [2]): below the threshold
pKd (NHERF3_1, Q5T2W1; [2]): 4.16
pKd (NHERF3_3, Q5T2W1; [2]): below the threshold
pKd (PDZRN4_1, Q6ZMN7; [2]): below the threshold
pKd (RADIL, Q96JH8; [2]): 4.71
pKd (RHPN1, Q8TCX5; [2]): 4.65
pKd (SNTG1, Q9NSN8; [2]): 4.45
pKd (SYNJ2BP, P57105; [2]): 3.61
pKd (TJP1_2, Q07157; [2]): below the threshold
pKd (TJP3_3, O95049; [2]): below the threshold

B3: GRIP1, Q9Y3R0 (peptide)
chain: LETREPTNTL
pKd (APBA2_1, Q99767; [3]): below the threshold
pKd (ARHGEF11, O15085; [3]): below the threshold
pKd (ARHGEF12, Q9NZN5-2; [3]): below the threshold
pKd (CASK, O14936; [3]): below the threshold
pKd (DLG2_2, Q15700; [3]): below the threshold
pKd (DLG2_3, Q15700; [3]): below the threshold
pKd (GRID2IP_1, A4D2P6; [3]): below the threshold
pKd (GRIP1_2, Q9Y3R0; [3]): below the threshold
pKd (GRIP1_3, Q9Y3R0; [3]): below the threshold
pKd (GRIP2_6, Q9C0E4; [3]): below the threshold
pKd (HTRA1, Q92743; [3]): 3.5
pKd (IL16_4, Q14005; [3]): below the threshold
pKd (Inadl_10, Q8NI35; [3]): below the threshold
pKd (Inadl_2, Q8NI35; [3]): below the threshold
pKd (LIN7C, Q9NUP9; [3]): 4.07
pKd (LNX1_2, Q8TBB1; [3]): below the threshold
pKd (MAGI1_1, Q96QZ7; [3]): below the threshold
pKd (NHERF3_1, Q5T2W1; [3]): below the threshold
pKd (NHERF3_3, Q5T2W1; [3]): below the threshold
pKd (PDZRN4_1, Q6ZMN7; [3]): below the threshold
pKd (RADIL, Q96JH8; [3]): below the threshold
pKd (RHPN1, Q8TCX5; [3]): below the threshold
pKd (SNTG1, Q9NSN8; [3]): below the threshold
pKd (SYNJ2BP, P57105; [3]): below the threshold
pKd (TJP1_2, Q07157; [3]): below the threshold
pKd (TJP3_3, O95049; [3]): below the threshold

B4: TUBB4B, P68371 (peptide)
chain: FEEEAEEEVA
pKd (APBA2_1, Q99767; [3]): below the threshold
pKd (ARHGEF11, O15085; [3]): below the threshold
pKd (ARHGEF12, Q9NZN5-2; [3]): below the threshold
pKd (CASK, O14936; [3]): below the threshold
pKd (DLG2_2, Q15700; [3]): below the threshold
pKd (DLG2_3, Q15700; [3]): below the threshold
pKd (GRID2IP_1, A4D2P6; [3]): below the threshold
pKd (GRIP1_2, Q9Y3R0; [3]): below the threshold
pKd (GRIP1_3, Q9Y3R0; [3]): below the threshold
pKd (GRIP2_6, Q9C0E4; [3]): below the threshold
pKd (HTRA1, Q92743; [3]): 3.58
pKd (IL16_4, Q14005; [3]): below the threshold
pKd (Inadl_10, Q8NI35; [3]): below the threshold
pKd (Inadl_2, Q8NI35; [3]): below the threshold
pKd (LIN7C, Q9NUP9; [3]): 3.76
pKd (LNX1_2, Q8TBB1; [3]): below the threshold
pKd (MAGI1_1, Q96QZ7; [3]): below the threshold
pKd (NHERF3_1, Q5T2W1; [3]): below the threshold
pKd (NHERF3_3, Q5T2W1; [3]): below the threshold
pKd (PDZRN4_1, Q6ZMN7; [3]): below the threshold
pKd (RADIL, Q96JH8; [3]): below the threshold
pKd (RHPN1, Q8TCX5; [3]): below the threshold
pKd (SNTG1, Q9NSN8; [3]): below the threshold
pKd (SYNJ2BP, P57105; [3]): below the threshold
pKd (TJP1_2, Q07157; [3]): below the threshold
pKd (TJP3_3, O95049; [3]): below the threshold
